According to article PMC3438964 (The Journal of Biological Chemistry, 2012):
Where a chain is given by its changes, count along the chain named. Names may count otherwise.

How the values were obtained:
hUXS1 = molecular target: T1, hUXS1 (Homo sapiens, UniProt Q8NBZ7); assay: X-ray crystal structure, […] Å; format: binding; conditions: SeMet-labelled protein; 5 mM NAD+, 5 mM UDP; coenzyme site
T1 sequence (Q8NBZ7 85-402): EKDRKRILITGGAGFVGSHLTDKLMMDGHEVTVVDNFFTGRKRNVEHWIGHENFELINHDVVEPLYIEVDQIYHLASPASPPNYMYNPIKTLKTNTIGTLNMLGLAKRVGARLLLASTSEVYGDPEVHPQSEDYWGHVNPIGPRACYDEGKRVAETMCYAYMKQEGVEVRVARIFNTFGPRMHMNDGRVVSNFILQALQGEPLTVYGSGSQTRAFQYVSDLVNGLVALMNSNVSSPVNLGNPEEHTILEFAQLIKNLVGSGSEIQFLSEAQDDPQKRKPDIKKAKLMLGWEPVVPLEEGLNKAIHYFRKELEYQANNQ

purified protein = substrate: O=C(O)[C@H]1O[C@H](OP(=O)(O)OP(=O)(O)OC[C@H]2O[C@@H](n3ccc(=O)[nH]c3=O)[C@H](O)[C@@H]2O)[C@H](O)[C@@H](O)[C@@H]1O; assay: purified protein; conditions: 50 mM Tris/HCl pH 7.5, 25 °C

## NC(=O)c1ccc[n+]([C@@H]2O[C@H](COP(=O)(O)OP(=O)(O)OC[C@H]3O[C@@H](n4cnc5c(N)ncnc54)[C@H](O)[C@@H]3O)[C@@H](O)[C@H]2O)c1 [NAD^+]
hUXS1
  X-ray crystal structure, 1.26 Å: We solved the crystal structure of hUXS1 in complex with NAD^+ and UDP

B1: hUXS1 (Homo sapiens) (protein)
chain: T1 sequence (Q8NBZ7 85-402)
Purified protein; 0.5 mM NAD+
  kcat: 0.2/oxidation^e

B2: hUXS1 (Homo sapiens; E204A) (protein)
chain: T1 sequence (Q8NBZ7 85-402) with E120A
Purified protein; 10 mM NAD+
  kcat: 1.7 × 10^−3/reduction^e
